Cooperativity factor α with fusicoccin-A and Kd data for 1 substance are collected here from publication PMC10074561.

Assay [1] addresses TASK3 (UniProt Q9NPC2). The assay is described as follows: fluorescence polarisation; 2D fluorescence anisotropy titrations of 14-3-3 at varying concentrations of fusicoccin-A, 10 nM labelled TASK3; fitted here with a ternary equilibrium model, KD,I fixed at 4.05 μM; data (Dataset S2) published before. (Polarisation of emitted light reports the rotation of a fluorescent probe.)
Chain of UniProt Q9NPC2 (Q9NPC2 whole entry): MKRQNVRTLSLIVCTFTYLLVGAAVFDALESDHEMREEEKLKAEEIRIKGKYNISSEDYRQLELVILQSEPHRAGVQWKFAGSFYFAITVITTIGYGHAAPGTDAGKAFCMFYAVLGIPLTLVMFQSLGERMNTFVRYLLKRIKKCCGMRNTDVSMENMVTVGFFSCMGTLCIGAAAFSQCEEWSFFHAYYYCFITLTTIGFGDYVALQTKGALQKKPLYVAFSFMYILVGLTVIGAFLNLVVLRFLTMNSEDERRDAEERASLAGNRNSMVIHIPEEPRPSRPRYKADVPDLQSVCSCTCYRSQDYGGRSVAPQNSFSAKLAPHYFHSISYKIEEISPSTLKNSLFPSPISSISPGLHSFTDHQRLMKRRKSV
Assay [2] addresses TASK3 (UniProt Q9NPC2). Kind of assay: fluorescence polarisation; fluorescence anisotropy; 14-3-3 titrated in the presence of 10 nM labelled TASK3; KD fitted here with a one-to-one equilibrium model; data (Dataset S1) from earlier work.

By Kd is commonly meant the constant that tells how readily two partners part at equilibrium.

In the case of “14-3-3 protein (from UniProt P31947 1-248) (natural protein)”, the cooperativity factor α with fusicoccin-A in assay [1] is 1340. Besides, in assay [2], the Kd was 4.05 µM.
